Results from the RNAGym collection of RNA variant scans (doi:10.1093/molbev/msab373).

B1: Azoarcus group I ribozyme (parent)
chain: GUGCCUUGCGCCGGGAAACCACGCAAGGGAUGGUGUCAAAUUCGGCGAAACCUAAGCGCCCGCCCGGGCGUAUGGCAACGCCGAGCCAAGCUUCGGCGCCUGCGCCGAUGAAGGUGUAGAGACUAGACGGCACCCACCUAAGGCAAACGCUAUGGUGAAGGCAUAGUCCAGGGAGUGGCGAAAGUCACACAAACCGG

Variants of: B1
Assay: reverse-splicing fitness (ratio to wild type); higher = more active; in vitro selection; Mg2+ level not given
How it was run: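 An in vitro group I ribozyme library with randomized positions was T7-transcribed and gel-purified. In triplicate, 10 pmol RNA in EPPS pH 7.5 was reacted with 50 pmoles of a 30-nt RNA substrate for 1 h at 37 °C across several added MgCl2 levels (1–48 mM), then stopped with EDTA. Products were reverse transcribed from a substrate-complementary primer, PCR-amplified and sequenced (HiSeq 4000). Fitness is a variant's read proportion after selection over that before, normalised to wild type.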

| Variant | reverse-splicing fitness |
| --- | --- |
| C82U A120C A145U C150G C169A U176C | 0.00716 |
| C82U A120C A145U C150G C169A U176G | 0.00423 |
| C82U A120C A145U C150G C169G | 0.0059 |
| C82U A120C A145U C150G C169G U176A | 0.00652 |
| C82U A120C A145U C150G C169G U176C | 0.00491 |
| C82U A120C A145U C150G C169G U176G | 0.00365 |
| C82U A120C A145U C150G C169U | 0.00863 |
| C82U A120C A145U C150G C169U U176A | 0.00974 |
| C82U A120C A145U C150G C169U U176C | 0.0116 |
| C82U A120C A145U C150G C169U U176G | 0.00467 |
| C82U A120C A145U C150G U176A | 0.00757 |
| C82U A120C A145U C150G U176C | 0.0134 |
| C82U A120C A145U C150G U176G | 0.0036 |
| C82U A120C A145U C150U | 0.109 |
| C82U A120C A145U C150U C169A | 0.0082 |
| C82U A120C A145U C150U C169A U176A | 0.0108 |
| C82U A120C A145U C150U C169A U176C | 0.00582 |
| C82U A120C A145U C150U C169A U176G | 0.00423 |
| C82U A120C A145U C150U C169G | 0.00708 |
| C82U A120C A145U C150U C169G U176A | 0.00914 |
| C82U A120C A145U C150U C169G U176C | 0.00724 |

| Variant | reverse-splicing fitness |
| --- | --- |
| C82U A120C A145U C150U C169G U176G | 0.00405 |
| C82U A120C A145U C150U C169U | 0.0166 |
| C82U A120C A145U C150U C169U U176A | 0.0148 |
| C82U A120C A145U C150U C169U U176C | 0.0144 |
| C82U A120C A145U C150U C169U U176G | 0.00397 |
| C82U A120C A145U C150U U176A | 0.0328 |
| C82U A120C A145U C150U U176C | 0.0537 |
| C82U A120C A145U C150U U176G | 0.00795 |
| C82U A120C A145U C169A | 0.00492 |
| C82U A120C A145U C169A U176A | 0.00753 |
| C82U A120C A145U C169A U176C | 0.00593 |
| C82U A120C A145U C169A U176G | 0.00364 |
| C82U A120C A145U C169G | 0.00567 |
| C82U A120C A145U C169G U176A | 0.00692 |
| C82U A120C A145U C169G U176C | 0.00836 |
| C82U A120C A145U C169G U176G | 0.00338 |
| C82U A120C A145U C169U | 0.0193 |
| C82U A120C A145U C169U U176A | 0.0169 |
| C82U A120C A145U C169U U176C | 0.0155 |
| C82U A120C A145U C169U U176G | 0.00405 |
| C82U A120C A145U U176A | 0.0458 |

| Variant | reverse-splicing fitness |
| --- | --- |
| C82U A120C A145U U176C | 0.0723 |
| C82U A120C A145U U176G | 0.0114 |
| C82U A120C C150A | 0.0251 |
| C82U A120C C150A C169A | 0.00872 |
| C82U A120C C150A C169A U176A | 0.0169 |
| C82U A120C C150A C169A U176C | 0.0132 |
| C82U A120C C150A C169A U176G | 0.00426 |
| C82U A120C C150A C169G | 0.00799 |
| C82U A120C C150A C169G U176A | 0.0156 |
| C82U A120C C150A C169G U176C | 0.0164 |
| C82U A120C C150A C169G U176G | 0.00373 |
| C82U A120C C150A C169U | 0.0109 |
| C82U A120C C150A C169U U176A | 0.0175 |
| C82U A120C C150A C169U U176C | 0.0169 |
| C82U A120C C150A C169U U176G | 0.00498 |
| C82U A120C C150A U176A | 0.0163 |
| C82U A120C C150A U176C | 0.0193 |
| C82U A120C C150A U176G | 0.00583 |
| C82U A120C C150G | 0.0174 |
| C82U A120C C150G C169A | 0.00883 |
| C82U A120C C150G C169A U176A | 0.0104 |

| Variant | reverse-splicing fitness |
| --- | --- |
| C82U A120C C150G C169A U176C | 0.00991 |
| C82U A120C C150G C169A U176G | 0.00606 |
| C82U A120C C150G C169G | 0.00683 |
| C82U A120C C150G C169G U176A | 0.00705 |
| C82U A120C C150G C169G U176C | 0.00447 |
| C82U A120C C150G C169G U176G | 0.00432 |
| C82U A120C C150G C169U | 0.00921 |
| C82U A120C C150G C169U U176A | 0.00844 |
| C82U A120C C150G C169U U176C | 0.0136 |
| C82U A120C C150G C169U U176G | 0.00422 |
| C82U A120C C150G U176A | 0.00635 |
| C82U A120C C150G U176C | 0.0118 |
| C82U A120C C150G U176G | 0.00299 |
| C82U A120C C150U | 0.0835 |
| C82U A120C C150U C169A | 0.00876 |
| C82U A120C C150U C169A U176A | 0.0158 |
| C82U A120C C150U C169A U176C | 0.0107 |
| C82U A120C C150U C169A U176G | 0.00426 |
| C82U A120C C150U C169G | 0.00713 |
| C82U A120C C150U C169G U176A | 0.0126 |
| C82U A120C C150U C169G U176C | 0.0117 |
